Results published in patent publication US8480647B2, “Delivery device for delivering bioactive agents to internal tissue in a body” (Bioprotect Ltd., priority 2007, dated 2013).

Key:
[1] = Release from L-PLA-co PEG5000 hydrogel-wall balloons in aqueous media; type: physicochemical; details: 1 cm balloons of L-PLA-co PEG5000 triblock or 50:50 mixture with L-PLA, 200 and 300 micron wall thicknesses
Experimental: In a similar experiment, biodegradable balloons of 1 cm diameter were prepared from triblock copolymers of L-PLA-co PEG5000, Mw=80,000 or in a 50:50 mixture with L-PLA Mw=120,000 by the solvent casting on a gelatin mold method. Balloons with 200 and 300 micron wall thicknesses were prepared. These balloons swell when inserted in aqueous media to form hydrogel walls which are permeable to water soluble molecules.

[2] = Release of loaded agents from poly(caprolactone-L-lactide)/PEG porogen balloons; type: physicochemical; details: for period of constant release from balloon: loaded with 10% w/v solution
Experimental: In a typical experiment, dichloromethane solutions of poly(caprolactone-L-lactide) 70:30 w/w, Mw=100,000 and polyethylene glycol Mw=400 (PEG400) and PEG2000 mixed at a 1, 5, 10 and 20 w/w % per polymer were used for producing balloons by dipping as described above. The balloons were immersed in water to allow the leach-out of the water soluble PEG. The balloons were analyzed for pore size, uniformity of pores throughout the membrane, and diffusion of LHRH hormone and BSA (bovine serum albumin) as representative protein. Uniform micron size holes of a similar size were generated for the 1 and 5% PEG but more holes for the 5%, while the 20% PEG generated much larger holes throughout the wall which also affects the strength of the wall. […] The balloon remain inflated for about 4 months in 0.1M phosphate buffer solution at 37° C. before signs of degradation occur measured by a significant decrease in molecular weight and change in the flexibility and clarity of the balloons. In a continuation experiment, lyophilized powder of LHRH (10 mg) on dextrose (100 mg) was dispersed in glycerol (100 mg) and injected into the 10 mm diameter balloon and release under physiological conditions was determined.

Row | Compound | release from hydrogel-wall balloons [1] | release behaviour in comparison with the other loaded agents ([2]; poly(caprolactone-L-lactide)/PEG balloons) | period of constant release from balloon ([2]; 5% PEG balloons of poly(caprolactone-L-lactide) 70:30) | period of constant release from balloon ([2]; 20% PEG balloons of poly(caprolactone-L-lactide) 70:30) | release of native LHRH from balloon, determined by HPLC ([2]; lyophilized LHRH (10 mg) on dextrose (100 mg) dispersed in glycerol (100 mg), 10 mm diameter balloon, physiological conditions)
1 | O=c1[nH]cc(F)c(=O)[nH]1 [5-FU] | constantly release at high amounts for weeks | released much faster for a shorter time period at a zero order profile | – | – | –
2 | CN(Cc1cnc2nc(N)nc(N)c2n1)c1ccc(C(=O)N[C@@H](CCC(=O)O)C(=O)O)cc1 [methotrexate] | constantly release at high amounts for weeks | – | – | – | –
3 | LHRH: LHRH hormone, therapeutic peptide loaded in the balloon | released at low concentrations over time | – | a few months | weeks | constantly released for weeks
